# Assay results: patent publication US20250009854A1 (MACFARLANE BURNET INSTITUTE FOR MEDICAL RESEARCH AND PUBLIC …, published 2025)
# Substitutions are numbered along the chain they refer to.
# T1: dimeric rsFcγRIIa (H131 allelic form) (UniProt P12318 34-217)
# T1 construct: also called dimeric recombinant soluble FcγRIIa
# T1 sequence: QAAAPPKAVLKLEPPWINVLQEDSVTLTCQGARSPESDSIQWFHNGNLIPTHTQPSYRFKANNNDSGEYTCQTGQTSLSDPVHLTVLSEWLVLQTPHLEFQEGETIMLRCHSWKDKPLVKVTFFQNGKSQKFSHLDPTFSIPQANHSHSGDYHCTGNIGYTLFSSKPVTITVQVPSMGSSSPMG
# B1: CC40.8-WT mAb (antibody, V domains shown)
# VH: EVQLLESGGGLVQPGGSLRLSCAASGFTFSSYVMTWARQAPGKGLEWVSAISGTGYTYYADSVKGRFTVSRDNSKNTLFLQMSSLRAEDTAVYYCAITMAPVVWGQGTTVTVSS
# VL: SYELTQPPSVSVSPGQTARITCSGDALPKRYAYWYQQKSGQAPILVIYEDKKRPSGIPERLSGSKSGTVATLTISGAQVEDEADYYCYSTDSSGNHAVFGGGTQLTVLG
# B2: EflACE2-Fc-[change] (Fc fusion)
# chain: ETGSTIEEQAKYFLDKFNHEAEDLFYQSSLASWNYNTNITEENVQNMNNAGDKWSAFLKEQSTTAQMYPLQEIQNLTVKLQLQALQQNGSSVLSEDKSKRLNTILNTMSTIYSTGKVCNPDNPQECLLLEPGLNEIMANSLDYNERLWAWESWRSEVGKQLRPLYEEYVVLKNEMARANHYEDYGDYWRGDYEVNGVDGYDYSRGQLIEDVEHTFEEIKPLYEHLHAYVRAKLMNAYPSYISPIGCLPAHLLGDMWGRFWTNLYSLTVPFGQKPNIDVTDAMVDQAWDAQRIFKEAEKFFVSVGLPNMTQGFWEYSMLTDPGNVQKAVCHPTAWDLGKGDFRILMCTKVTMDDFLTAHHEMGHIQYDMAYAAQPFLLRNGANEGFHEAVGEIMSLSAATPKHLKSIGLLSPDFQEDNETEINFLLKQALTIVGTLPFTYMLEKWRWMVFKGEIPKDQWMKKWWEMKREIVGVVEPVPHDETYCDPASLFHVSNDYSFIRYYTRTLYQFQFQEALCQAAKHEGPLHKCDISNSTEAGQKLFNMLRLGKSEPWTLALENVVGAKNMNVRPLLNYFEPLFTWLKDQNKNSFVGWSTDWSPYADQSIKVRISLKSALGDRAYEWNDNEMYLFRSSVAYAMRQYFLKVKNQMILFGEEDVRVANLKPRISFNFFVTAPKNVSDIIPRTEVEKAIRMSRSRINDAFRLNDNSLEFLGIQPTLGPPNQPPVSGGGGSTHTCPPCPAPELLGGPSVFLFPPKPKDTLMISRTPEVTCVVVDVSHEDPEVKFNWYVDGVEVHNAKTKPREEQYNSTYRVVSVLTVLHQDWLNGKEYKCKVSNKALPAPIEKTISKAKGQPREPQVYTLPPSREEMTKNQVSLTCLVKGFYPSDIAVEWESNGQPENNYKTTPPVLDSDGSFFLYSKLTVDKSRWQQGNVFSCSVMFEALHNHYTQKSLSLSPGK
# B3: EflACE2-Fc-[change] (Fc fusion)
# chain: B2 chain with F937Y
# B4: S2P6-WT mAb (antibody, V domains shown)
# VH: EVQLVQSGAEVKKPGASVKVSCKASGYTFTSQYMHWVRQAPGQGLEWIGIINPSGVHTSYAQKFQGRVTLTRDTSTSTLYMELSSLRSEDTAVYYCARGSPKGAFDYWGQGTLVTVSS
# VL: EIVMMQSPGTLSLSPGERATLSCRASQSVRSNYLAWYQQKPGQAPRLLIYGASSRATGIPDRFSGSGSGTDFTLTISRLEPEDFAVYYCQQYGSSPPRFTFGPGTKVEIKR
# Key:
# [1] = molecular target: T2, SARS-CoV-2 spike protein on Ramos-S cells (SARS-CoV-2, UniProt P0DTC2 14-1273); assay: flow cytometry on Ramos-S cells, FITC anti-hIgG-Fc
# T2 construct: whole, on cells
# [2] = molecular target: T1, dimeric rsFcγRIIa (H131 allelic form); assay: flow cytometry, biotinylated dimeric rsFcγRIIa + streptavidin-APC on Ramos-S cells opsonised with 5 µg/ml ACE2-Fc
# [3] = molecular target: T3, dimeric rsFcγRIIIa (V158 form) (UniProt P08637 17-208); assay: flow cytometry, biotinylated dimeric rsFcγRIIIa + streptavidin-APC on Ramos-S cells opsonised with 5 µg/ml ACE2-Fc
# T3 construct: also called dimeric recombinant soluble FcγRIIIa
# [4] = molecular target: T1, dimeric rsFcγRIIa (H131 allelic form); assay: flow cytometry, biotinylated dimeric rsFcγRIIa + streptavidin-APC on Ramos-S cells opsonised with ACE2-Fc
# T3 sequence (P08637 17-208 F176V limits assumed): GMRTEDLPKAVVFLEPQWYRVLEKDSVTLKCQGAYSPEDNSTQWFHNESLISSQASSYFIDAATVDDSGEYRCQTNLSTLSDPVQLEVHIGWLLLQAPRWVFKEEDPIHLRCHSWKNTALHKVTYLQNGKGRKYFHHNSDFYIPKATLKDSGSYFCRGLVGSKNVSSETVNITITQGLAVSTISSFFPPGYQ
binder,measurement,setting,value
B1,binding result,[1],binds
B2,binding result,[2],binds
same,binding result,[3],binds
B3,binding result,[4],no binding (tested: 5 µg/ml ACE2-Fc for opsonisation)
B4,binding result,[1],binds
